Here are results for one molecule from publication PMC6910828 (2019).

For experiment [1], the target named is Cy3-labelled, prenylated Cdc42 G12V, GTPγS-bound (Cy3 at the N-terminus (Cy3 N-t labeled LPETGG peptide joined by sortase); geranylgeranyl by in vitro prenylation (C-terminal prenyl moiety); GTPγS-bound). Put plainly: GTPγS-bound; extraction from supported lipid bilayers.
Experiment [2] concerns the target Cy3-labelled, prenylated Rho G14V, GTPγS-bound (Cy3 at the N-terminus (Cy3 N-t labeled LPETGG peptide joined by sortase); geranylgeranyl by in vitro prenylation (C-terminal prenyl moiety); GTPγS-bound). Described as above.
Experiment [3] concerns the target Cy3-labelled, prenylated Cdc42 Q61L, GTP-bound (Cy3 at the N-terminus (Cy3 N-t labeled LPETGG peptide joined by sortase); geranylgeranyl by in vitro prenylation (C-terminal prenyl moiety); GTP-bound). Put plainly: GTP-bound; extraction from supported lipid bilayers.
The target of experiment [4] is Cy3-labelled, prenylated Rho Q63L, GTP-bound (Cy3 at the N-terminus (Cy3 N-t labeled LPETGG peptide joined by sortase); geranylgeranyl by in vitro prenylation (C-terminal prenyl moiety); GTP-bound). The experiment is described as above.
Sequence of Cy3-labelled, prenylated Rho Q63L, GTP-bound (Cy3 at the N-terminus (Cy3 N-t labeled LPETGG peptide joined by sortase); geranylgeranyl by in vitro prenylation (C-terminal prenyl moiety); GTP-bound) (chain, as listed by the source Q63L): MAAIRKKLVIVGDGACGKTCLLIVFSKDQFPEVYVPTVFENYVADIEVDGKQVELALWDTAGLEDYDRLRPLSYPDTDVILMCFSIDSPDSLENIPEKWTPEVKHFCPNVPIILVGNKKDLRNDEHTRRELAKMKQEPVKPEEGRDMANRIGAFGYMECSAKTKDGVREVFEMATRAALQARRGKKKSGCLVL
Experiment [5] addresses Cy3-labelled, prenylated Rho, wild type, GDP-bound (Cy3 at the N-terminus (Cy3 N-t labeled LPETGG peptide joined by sortase); geranylgeranyl by in vitro prenylation (C-terminal prenyl moiety); GDP-bound). The experiment in a line: GDP-bound; extraction from supported lipid bilayers.
The target in experiment [6] is Cy3-labelled, prenylated Cdc42, wild type, GDP-bound (Cy3 at the N-terminus (Cy3 N-t labeled LPETGG peptide joined by sortase); geranylgeranyl by in vitro prenylation (C-terminal prenyl moiety); GDP-bound). The description is as above.
Sequence of Cy3-labelled, prenylated Cdc42, wild type, GDP-bound (Cy3 at the N-terminus (Cy3 N-t labeled LPETGG peptide joined by sortase); geranylgeranyl by in vitro prenylation (C-terminal prenyl moiety); GDP-bound) (P60953 whole entry): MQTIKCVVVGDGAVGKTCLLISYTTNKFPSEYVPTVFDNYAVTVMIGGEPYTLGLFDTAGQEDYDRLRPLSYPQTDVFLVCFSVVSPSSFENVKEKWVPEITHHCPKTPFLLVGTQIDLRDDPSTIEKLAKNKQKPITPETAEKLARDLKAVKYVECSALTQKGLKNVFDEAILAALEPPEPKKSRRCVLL

Usually Kd stands for the free concentration of one partner at which half of the binding sites on the other are occupied at equilibrium, for simple one-to-one binding.

Sequence of Cy3-labelled, prenylated Cdc42 Q61L, GTP-bound (Cy3 at the N-terminus (Cy3 N-t labeled LPETGG peptide joined by sortase); geranylgeranyl by in vitro prenylation (C-terminal prenyl moiety); GTP-bound) (chain, as listed by the source Q61L): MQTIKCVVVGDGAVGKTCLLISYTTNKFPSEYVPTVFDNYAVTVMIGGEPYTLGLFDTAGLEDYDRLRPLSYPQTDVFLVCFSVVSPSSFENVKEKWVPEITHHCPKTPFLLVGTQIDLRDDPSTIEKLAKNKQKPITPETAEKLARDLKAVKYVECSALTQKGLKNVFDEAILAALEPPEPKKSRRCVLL
Sequence of Cy3-labelled, prenylated Cdc42 G12V, GTPγS-bound (Cy3 at the N-terminus (Cy3 N-t labeled LPETGG peptide joined by sortase); geranylgeranyl by in vitro prenylation (C-terminal prenyl moiety); GTPγS-bound) (chain, as listed by the source G12V): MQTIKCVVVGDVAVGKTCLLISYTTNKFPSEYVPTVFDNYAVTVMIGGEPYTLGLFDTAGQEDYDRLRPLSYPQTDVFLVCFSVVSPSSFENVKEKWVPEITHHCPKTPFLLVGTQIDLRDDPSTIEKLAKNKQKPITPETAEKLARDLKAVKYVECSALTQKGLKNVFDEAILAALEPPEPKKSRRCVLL
Sequence of Cy3-labelled, prenylated Rho, wild type, GDP-bound (Cy3 at the N-terminus (Cy3 N-t labeled LPETGG peptide joined by sortase); geranylgeranyl by in vitro prenylation (C-terminal prenyl moiety); GDP-bound) (chain, as listed by the source): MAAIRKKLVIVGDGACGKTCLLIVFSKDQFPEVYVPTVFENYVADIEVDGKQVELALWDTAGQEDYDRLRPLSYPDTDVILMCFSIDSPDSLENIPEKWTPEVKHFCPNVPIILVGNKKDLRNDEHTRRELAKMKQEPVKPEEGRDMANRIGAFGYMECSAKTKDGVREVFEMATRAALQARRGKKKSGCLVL
Sequence of Cy3-labelled, prenylated Rho G14V, GTPγS-bound (Cy3 at the N-terminus (Cy3 N-t labeled LPETGG peptide joined by sortase); geranylgeranyl by in vitro prenylation (C-terminal prenyl moiety); GTPγS-bound) (chain, as listed by the source G14V): as the sequence (chain, as listed by the source Q63L) above, with G14V, L63Q counted along it

B1: Xenopus laevis RhoGDI, wild type (natural protein)
chain: MAEHEPTPEQLHQIAAENQDEEHSVDYKPPAQKSIKEIQELDQDDESLRKYKEALLGSLPSSADPEASNVVVTKLTLLCDCAPGPLELDLTGDLEKFKKQSFTLKEGVEYRIKISFKVNKEIVSGLRYQQQTYRKGVRLDRTRYMVGSYGPRVDEYEFLTPIEEAPNGMLARGCYNIKSLFTDDDKSNHLSWEWNLHIKNDWKS
As to B1, the Kd in experiment [1] is 4.95 µM; in experiment [2] it was 5.43 µM; in experiment [3], 14.4 µM; in experiment [4] it was 19.6 µM; in experiment [5], 5.77 µM; in experiment [6] it was 3.41 µM.
